From the supplement of paper PMC9732359
± gives the uncertainty stated by the source.

Experiment: protein stability index of a GFP-peptide fusion (yeast GPS) (PSI 1-4); higher = more stable; sorted into four equal gates, so the index is relative within each strain
Outline: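 Yeast carrying a pooled library were grown to mid-log phase in leucine-free medium. Each library plasmid expresses Cherry and has a tiled 17-residue yeast protein peptide fused downstream of GFP. Cells were sorted into four equal gates by GFP/Cherry ratio, and plasmids from each gate were PCR-amplified, Illumina-sequenced and assigned to strains by barcode. Summing, across gates, the read frequency times the gate number gave each peptide's protein stability index.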

Row | Sequence | protein stability index (doa10∆) | protein stability index (pdr5∆) | protein stability index (san1∆) | protein stability index (ubr1∆)
1 | HTVTNSPNPTLQPVIPG [SNF5] | 2.55 ± 0.052 | 2.32 ± 0.049 | 2.53 ± 0.052 | 2.78 ± 0.042
2 | VQLKDANSQIQAYEEII [YIL149C/MLP2] | 2.69 ± 0.12 | 3.5 ± 0.17 | 3.37 ± 0.23 | 3.45 ± 0.12
3 | NANTVFAGSNNQPHQSQ [YOR098C/NUP1] | 2.85 ± 0.1 | 3.15 ± 0.08 | 2.89 ± 0.06 | 3.07 ± 0.046
4 | LVRYGLAEKVEKASRQQ [RPS24A] |  | 3.33 ± 0.11 | 3.38 ± 0.098 | 3.19 ± 0.19
5 | LNSFVNDIFERIATEAS [HTB1] | 2.95 ± 0.11 | 2.89 ± 0.091 | 2.63 ± 0.1 | 2.96 ± 0.061
6 | LIELLEKLDVSRSSVCV [YCG1] | 2.44 ± 0.072 | 2.32 ± 0.058 | 2.05 ± 0.08 | 1.88 ± 0.065
7 | TSRTIVRNVKGPVREND [RPS28A] | 3.4 ± 0.11 | 3.16 ± 0.1 | 3.59 ± 0.11 | 3.27 ± 0.086
8 | LKNVNKRAFENFKKFNE [SMC3] | 2.23 ± 0.086 | 1.95 ± 0.15 | 1.91 ± 0.094 | 1.88 ± 0.09
9 | KRKWSYVLYAKIVVLSR [RRP43] | 1.82 ± 0.06 | 2.36 ± 0.064 | 1.87 ± 0.11 | 2.21 ± 0.056
10 | PLRGALATYGLTIDDLG [FAS2] | 2.38 ± 0.087 | 2.51 ± 0.1 | 2.19 ± 0.1 | 2.72 ± 0.079
11 | TGDADEPELRVLSTEEI [RPO21] | 3.59 ± 0.13 | 3.25 ± 0.099 | 3.49 ± 0.064 | 3.43 ± 0.06
12 | LHKNFESENFKIIALQP [RGR1] | 2.56 ± 0.076 | 2.62 ± 0.078 | 2.7 ± 0.06 | 2.58 ± 0.073
13 | IIRPILGKVRFANYKLL [SRB4] | 1.44 ± 0.045 | 1.75 ± 0.043 | 1.14 ± 0.1 | 1.73 ± 0.057
14 | VPPVENFPVRQWSIEIV [TAF14] | 3.15 ± 0.064 | 2.55 ± 0.053 | 3.2 ± 0.042 | 2.82 ± 0.051
15 | GYDIFLNVVLDDAMEIN [SMX2] | 3.13 ± 0.064 | 3.07 ± 0.075 | 3.17 ± 0.054 | 2.99 ± 0.06
16 | EIKVGKQRFQGCNNLIK [ARP9] | 2.76 ± 0.16 | 3.06 ± 0.13 | 3.39 ± 0.092 | 3.34 ± 0.12
17 | SEEIDSLNEDVEEIKLQ [SMC2] | 3.19 ± 0.12 | 3.41 ± 0.14 | 2.94 ± 0.097 | 3.25 ± 0.077
18 | DSESDSDSETNHKSKDN [SKP1] | 2.75 ± 0.053 | 3.04 ± 0.051 | 3 ± 0.039 | 3.1 ± 0.044
19 | LKQEGAANKTVVVVGTV [RPL18A] | 2.94 ± 0.27 | 3.31 ± 0.11 | 2.51 ± 0.11 | 3.46 ± 0.12
20 | DSKNTPNVFDKDSYVRI [YDL088C/ASM4] | 3.01 ± 0.12 | 3.11 ± 0.048 | 3.06 ± 0.072 | 3.25 ± 0.051
21 | HNHDTGCDENDSTVNKS [YDL088C/ASM4] | 3.2 ± 0.09 | 3.2 ± 0.079 | 3.3 ± 0.057 | 3.05 ± 0.068
22 | FSSPAALMKTLIKFVDL [NUT1] | 1.98 ± 0.083 | 1.68 ± 0.057 | 1.95 ± 0.12 | 1.78 ± 0.12
23 | ELVVFLPALCKKMGVPY [RPL8A] | 2.92 ± 0.098 | 2.83 ± 0.11 | 2.78 ± 0.14 | 3 ± 0.061
24 | SSSIKSTGPTGAVSLNP [RRP4] | 3.24 ± 0.035 | 3.37 ± 0.048 | 3.231 ± 0.027 | 3.151 ± 0.031
25 | ETKWDDADEKSSNLYET [YJR042W/NUP85] |  | 3.22 ± 0.15 | 3.02 ± 0.13 | 3.25 ± 0.097
26 | SSNILEDILYYSTCPSE [SRB8] | 2.4 ± 0.1 | 2.4 ± 0.075 | 2.77 ± 0.059 | 2.54 ± 0.062

Row | Sequence | protein stability index (doa10∆) | protein stability index (pdr5∆) | protein stability index (san1∆) | protein stability index (ubr1∆)
27 | SKPVLIVGQKNLNRAFN [DIS3] | 3.08 ± 0.11 | 2.8 ± 0.1 | 2.77 ± 0.055 | 2.8 ± 0.088
28 | EHTDVIDELIDTKLRLE [YIL149C/MLP2] | 2.87 ± 0.052 | 3 ± 0.059 | 2.77 ± 0.039 | 2.7 ± 0.034
29 | DEDWSVRIDKALELDDT [ECM29] | 2.76 ± 0.18 | 3.38 ± 0.17 |  | 
30 | ARCYRYQKNKPYPKSRY [RPL10] | 2.3 ± 0.064 | 2.38 ± 0.065 | 2.41 ± 0.055 | 2.77 ± 0.057
31 | QRKKQSDVLRFLQRVRV [RPL15A] | 1.38 ± 0.16 | 2.26 ± 0.21 | 1.78 ± 0.26 | 1.56 ± 0.099
32 | VEGISEVQARKSKSVSF [RPT5] | 3.41 ± 0.068 | 3.49 ± 0.11 | 3.41 ± 0.068 | 3.3 ± 0.069
33 | PPPPPPPGYEIEELDNP [PRP8] | 2.87 ± 0.046 | 2.98 ± 0.04 | 3.04 ± 0.048 | 3.03 ± 0.033
34 | RPGRIDRKIEFPPPSVA [RPT6] | 3.21 ± 0.072 | 3.26 ± 0.07 | 3.05 ± 0.054 | 3.25 ± 0.048
35 | KKKDPVNQDKANNASQI [SNF12] | 3.02 ± 0.093 | 3.22 ± 0.11 | 3.19 ± 0.075 | 3.19 ± 0.068
36 | NDINISSIENNINNNIN [MED2] | 2.87 ± 0.044 | 3 ± 0.047 | 2.86 ± 0.041 | 3.11 ± 0.039
37 | GNGLVDENKVEAFKSLY [YAR002W/NUP60] | 3.35 ± 0.1 | 3.14 ± 0.12 | 3.53 ± 0.056 | 3.3 ± 0.053
38 | QITKFPKYRDNLATWYH [SSN3] | 2.77 ± 0.065 | 2.88 ± 0.077 | 2.7 ± 0.066 | 2.37 ± 0.041
39 | ALCKNRKCQFRTPDSIS [POP1] | 2.31 ± 0.053 | 2.77 ± 0.058 | 2.28 ± 0.082 | 1.94 ± 0.036
40 | CTKLAVYYSKRGFKVGL [SRP54] | 2.57 ± 0.14 | 2.73 ± 0.13 | 2.23 ± 0.099 | 2.54 ± 0.06
41 | KSRMINFLDAPGHVNFM [SNU114] |  | 2.65 ± 0.17 | 3.06 ± 0.12 | 3.57 ± 0.28
42 | QIQFTPLIKKIKYEPRF [SMC3] | 2.62 ± 0.061 | 2.52 ± 0.045 | 2.83 ± 0.09 | 2.43 ± 0.062
43 | EKLYIFYKLNMPDEFNT [SRP72] | 2.13 ± 0.043 | 1.96 ± 0.053 | 1.91 ± 0.078 | 1.6 ± 0.041
44 | KQTGRDQMVVGWYHSHP [RPN11] | 2.4 ± 0.12 | 1.97 ± 0.096 | 2.4 ± 0.15 | 1.53 ± 0.096
45 | KIYMLYSLQPSVDITGG [RPC34] | 1.94 ± 0.13 | 2.27 ± 0.15 |  | 2.27 ± 0.14
46 | PSEDVAAPKKTRKAVRP [RPL6B] | 2.74 ± 0.089 | 3.08 ± 0.1 | 2.93 ± 0.085 | 2.91 ± 0.073
47 | CVVLGCERRSTLKLQDT [PRE6] | 1.78 ± 0.074 | 1.66 ± 0.073 | 1.91 ± 0.13 | 1.28 ± 0.062
48 | SMINNSNQAVGQTWNFP [SRB8] | 2.8 ± 0.17 | 3.01 ± 0.16 | 3.15 ± 0.13 | 2.74 ± 0.12
49 | KTYKEGINKNEEYRKQL [SMC1] | 3.23 ± 0.16 | 2.2 ± 0.084 | 2.31 ± 0.077 | 2.19 ± 0.056
50 | FIFQIIEITNSNDLCSQ [SRB8] | 1.39 ± 0.059 | 1.62 ± 0.049 | 1.71 ± 0.1 | 1.21 ± 0.075
51 | RKFHELNDHIDDFEVNV [GRR1] | 3.07 ± 0.097 | 3.18 ± 0.1 | 2.42 ± 0.16 | 3.08 ± 0.073
52 | LGKRSILAAAHRDAYSG [PRE2] | 2.93 ± 0.2 | 3.26 ± 0.2 | 2.33 ± 0.18 | 2.85 ± 0.083
